Reference: patent US5550213, “Inhibitors of urokinase plasminogen activator” (Rutgers, The State University of New Jersey, dated 1996)
Numbering of substitutions follows the chain as printed.

B1: The PAI-2 derived mutant, 88 (designed binder)
chain: VDCSEYPKPACGRTGHPLCGSDNKTYGNKCNFCNAVVESNGTLTLSHFGKC
B2: The PAI-1 derived mutant, 89 (designed binder)
chain: B1 chain with G12A, T14M, G15A, H16A
B3: The Plasminogen derived mutant, 90 (designed binder)
chain: B1 chain with T14V, G15V, H16G
B4: The Nexin-1 derived mutant, 91 (designed binder)
chain: B1 chain with G12A, T14S, G15S, H16A

Assays:
[1] = target: T1, Urokinase plasminogen activator (Homo sapiens (Human), UniProt P00749); test: inhibition of UK (35 nM) activity on S-2288; Ki as slope of [I]o/(1-a) vs. 1/a
[2] = target: T1, Urokinase plasminogen activator; test: inhibition of UK activity; Ki by non-linear regression (Enzfitter) of free enzyme versus inhibitor concentration
Protocol: Fractional enzyme activities for each inhibitor-UK interaction of the above discussed inhibitors were determined by the assay method of Empie and Laskowski (Empie, M. W. et al., *Biochem.* 21:2274–2284 (1982)), as adapted from Green and Work (Green, N. M. et al., Biochem. J. 54:347–352 (1953)). The concentration of UK used for these reactions was 35 nM. The reactions were carried out in Buffer C. […] These five mutants include the four detailed above (88, 89, 80, AND 91), and also a mutant with arginine at the P1 site of OM3TKY (P1-Arg). […] The values for PSTI, PAI-1, PAI-2, and Nexin-1 were obtained from Turpeinen, U. et al. (*Biochem. J.* 254:911–914 (1988)), Kruithof, C.K.O. et al. (Thromb.-Haemost. 55::65–68 (1986)), Christensen, U. et al. (Thromb.-Haemost. 48:24–26 (1982)), and Stein, P. E. et al. (*Nature* 347:99–102 (1990)), respectively.
K_i values for the wild-type and mutant inhibitors versus urokinase were also determined by non-linear regression of the following equation: […]
The non-linear regression was done using the program Enzfitter, by Robin Leatherbarrow. E_o represents a total enzyme concentration in the reaction, I_o represents total inhibitor concentration, E is the free enzyme for a given inhibitor concentration and K_i is the equilibrium constant for the inhibitor. E and K_i are the unknowns in the equation, and are solved for during the regression analysis. Enzyme and inhibitor concentrations used were determined as mentioned above.

| Binder | Ki [1] | Ki [2] |
| --- | --- | --- |
| B1 | 40 nM | 67.6 nM |
| B2 | 0.31 nM | 35.9 nM |
| B3 | 106 nM | 51.3 nM |
| B4 | 120 nM | 505 nM |
